Like-named read-outs stand apart in the source and are kept apart here. No end group written: not given here.
Columns and labels:
FPRL1 = biological target: T1, FPRL1 (Homo sapiens, UniProt P25090); assay: Calcium flux in FPRL1-transfected CHO-K1 cells; type: cell-based; parameters: expressed in transfected cells; host or cells: CHO-K1 (ATCC-CCL-61), transient co-transfection; conditions: for ability to induce calcium flux (P33 family): 0.1, 1, 10, 100, 1000, 10000 nM; for calcium flux (P58 family): dose response, FPRL1 transfected CHO cells
T1 sequence (P25090 1-351): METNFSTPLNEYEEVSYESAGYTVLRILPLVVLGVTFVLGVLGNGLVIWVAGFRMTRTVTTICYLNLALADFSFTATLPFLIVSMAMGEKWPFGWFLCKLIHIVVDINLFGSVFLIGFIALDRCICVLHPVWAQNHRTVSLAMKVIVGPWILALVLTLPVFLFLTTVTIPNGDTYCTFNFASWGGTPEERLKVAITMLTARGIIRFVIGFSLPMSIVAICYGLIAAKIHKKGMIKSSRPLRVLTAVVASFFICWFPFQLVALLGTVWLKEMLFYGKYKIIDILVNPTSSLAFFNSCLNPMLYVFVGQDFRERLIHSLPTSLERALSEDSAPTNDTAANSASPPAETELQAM
Experimental: (§1) The assay was carried out in CHO cells were transiently transfected with the GPCR of choice, by utilizing the promiscuous Gα16 to divert signaling to the Gq pathway, thus enabling readout of GPCR activation by testing for Calcium flux as described by Liu et al 2003 (Biomol Screen 8, 39-49).
(§2) All the peptides thus obtained were tested for their ability to change calcium flux in CHO-K1 cells (ATCC-CCL-61) transiently co-transfected with an expression vector containing the GPCR of choice and expression vector containing the Gα16 encoding cDNA. Expression constructs containing cDNA clones for MrgX1, MrgX2, Mas or FPRL1 were commercially obtained in one of the following expression vectors: pcDNA3.1, pCMV6, or MO2.
(§3) Transient transfections were performed using CHO-K1 cells as host cells. Cells (12 million) were plated into T75 flasks on the day preceding transfection. Cells were transfected with the appropriate GPCR expression vector and with a vector expressing Gα16 using a lipid-based reagent, MTI, according to the manufacturer's recommendation. Cells were transfected for 5 hours, then re-plated into 96-well dishes (60,000 cells per well) and grown overnight.
On the day of the experiment, cells were loaded with Fluo-4-NW (Invitrogen) according to the manufacturer's recommendation. Plates were loaded into a FlexStation™ (Molecular Devices) plate reader and fluorescence was monitored. […] Each 96 well plate contained cells transfected with one GPCR expression vector and each of the examined peptides was tested in triplicate.
(§4) We defined a hit as a peptide which elicited a clear and distinct increase in intracellular calcium that is clearly visible and statistically significant upon examination of the calcium trace for at least two repeats. The criterion for statistical significance was a p-value lower than 0.001 in a t-test comparing the levels of calcium before and after peptide addition.
The ability of Peptides to change calcium flux was examined in CHO-K1 cells co-transfected with FPRL1 and Gα16.
The P33-derived peptides (see FIG. 1): P33_V (SEQ ID NO:7), P33 (SEQ ID NO:6)-mono, P33 (SEQ ID NO:6)-dimer, P33—5 (SEQ ID NO:27), P33—8 (SEQ ID NO:14), P33—9 (SEQ ID NO:15) and P33—10 (SEQ ID NO:16) were tested for their ability to activate FPRL1 using the calcium flux assay in FPRL1-transfected CHO cells. […] The lack of activity of these peptides might be due to reduced potency; insufficient sensitivity of the experimental system, alternative interaction of the receptor, or activation of other pathways, which are not related to calcium flux. Thus, this interaction should be further characterized.

[1] = test system: Zymosan-induced murine dorsal air pouch model; type: in vivo, mice; conditions: 4 h
Experimental: In order to analyze the ability of P58 to exert in vivo effects via the FPRL1 receptor, an acute experimental model of inflammation, the Zymosan-induced murine dorsal air pouch model, was used.
(§5) Male out-bred Swiss albino mice were purchased from Harlan, UK (T.O. strain) and maintained on a standard chow pellet diet with tap water ad libitum and a 12:00 h light /dark cycle. All animals were housed for 7 days prior to experimentation to allow body weight to reach ˜30 g on the day of the experiment.
Drugs were stored at −20° C. and defrosted on the day of the experiment. Peptide P58 was provided lyophilized; it was taken back to room temperature and dissolved with sterile PBS before use to make an initial 1 mg/ml solution. Peptide Ac2-26 (positive control) was also dissolved with sterile PBS before use to make an initial 1 mg/ml solution. Vehicle consisted of sterile pyrogen free PBS (Gibco, cat no. 14190-094). Once dissolved, P58 (SEQ ID NO:1) and Ac2-26 gave a clear solution. Drugs or vehicle were administered i.v. at a final volume of 200-μl, this volume containing the doses described below.
Lavage fluids were kept all the time on ice, then used to determine the number of migrated leukocytes, by taking an aliquot (100 μl) and diluting it 1:10 in Turk's solution (0.01% crystal violet in 3% acetic acid). The samples were then vortexed and 10 μl of the stained cell solution were placed in a Neubauer haematocymometer. Differential cell count was done using a light microscope (Olympus B061). In view of their chromatic characteristics and their nucleus and cytoplasm appearance, polymorphonuclear leukocytes (PMN; >95% neutrophils) could be easily identified.
For FACS analyses, an aliquot of lavage fluid was stained with the PE-conjugated anti-GR-1 monoclonal antibody (1:100 dilution, BD Biosciences; Cat 553128) to mark polymorphonuclear leukocytes. Staining was performed at 4° C.
Flow cytometry was performed using FACScan analyser (Becton Dickinson, Cowley, UK) with air-cooled 100 mW argon laser tuned to 488 nm connected to an Apple Macintosh G3 computer running Cell Quest II software. Forward and sidescatter characteristics were initially used to distinguish between the three distinct cell populations (lymphocytes, monocytes and granulocytes). Cells positive for GR-1 were detected in the FL2 channel (wavelength of 548 nm). Data are expressed as percentage of positive cells (in relation to the specific mAb). Determination of positive and negative populations was performed based on the control staining with irrelevant IgG isotype (rat IgG2b) labelled with PE. Once determined, quadrants were rigorously maintained for all analyses.
Data are shown for single mice, and also shown as mean±S.E. of (n) mice per group. Statistical differences were determined by ANOVA, plus Student Newman Keuls test. A P value <0.05 was taken as significant.
The anti-inflammatory activity of P58 shorter derivatives was tested in the same model of acute inflammation used in Example 6, the Zymosan-induced murine dorsal air pouch model.
as §5, with “˜25” for “˜30”
Drugs were stored at −20° C. and defrosted on the day of the experiment. Peptide P58 (SEQ ID NO:1) was provided lyophilized; it was taken back to room temperature and dissolved with sterile PBS before use to make an initial 1 mg/ml solution. Peptide P58-4 (SEQ ID NO:2) was provided lyophilized; it was taken back to room temperature and dissolved with sterile PBS before use to make an initial 327 μg/ml solution. Peptide P58-5 (SEQ ID NO:3) was provided lyophilized; it was taken back to room temperature and dissolved with sterile PBS before use to make an initial 476 μg/ml solution. […]

Mas receptor = biological target: T2, Mas receptor (Homo sapiens, UniProt P04201); assay: Calcium flux in Mas-transfected CHO-K1 cells; type: cell-based; conditions: for ability to induce calcium flux, relative potency (P61 family): dose response, Mas-transfected cells; for ability to induce calcium flux, relative potency (P33 family): 0.1, 1, 10, 100, 1000 and 10000 nM
T2 construct: expressed in transfected cells; host or cells: CHO-K1 (ATCC-CCL-61), transient co-transfection
T2 sequence (P04201 1-325): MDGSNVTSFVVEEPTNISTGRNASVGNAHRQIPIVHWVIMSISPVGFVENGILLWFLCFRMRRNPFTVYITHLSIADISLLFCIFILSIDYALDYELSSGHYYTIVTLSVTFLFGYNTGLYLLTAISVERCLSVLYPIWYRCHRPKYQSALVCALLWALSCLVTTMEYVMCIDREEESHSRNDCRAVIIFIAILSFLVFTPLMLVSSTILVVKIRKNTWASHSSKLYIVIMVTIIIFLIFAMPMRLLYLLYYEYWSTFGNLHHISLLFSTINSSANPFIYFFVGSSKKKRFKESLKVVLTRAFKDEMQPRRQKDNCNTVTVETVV
Experimental: as §1, §2, §3
On the day of the experiment, cells were loaded with Fluo-4-NW (Invitrogen) according to the manufacturer's recommendation. Plates were loaded into a FlexStation™ (Molecular Devices) plate reader and fluorescence was monitored. Seventeen seconds following initiation of reading, cells were stimulated with the indicated agonist/compound at final concentration of 1 μM. Each 96 well plate contained cells transfected with one GPCR expression vector and each of the examined peptides was tested in triplicate.
as §4
Based on dose response experiments, EC50 best fit values were calculated by non-linear regression of sigmoidal dose-response curves, using Prism version 4 (GraphPad Software Inc., San Diego, Calif.). The formulae for the sigmoidal dose-response curves was defined as Y=Bottom+(Top−Bottom)/(1+10^(Log EC50−X)*HillSlope))
The ability of Peptides to change calcium flux was examined in CHO-K1 cells co-transfected with Mas receptor and Gα16.
The P33 monomer and dimer, as well as other P33 derivative peptides were compared for their ability to induce calcium flux in the Mas-transfected cells at 0.1, 1, 10, 100, 1000 and 10000 nM.

Substance	ability to induce calcium flux (P33 family) (FPRL1)	calcium flux (P58 family) (FPRL1)	ability to induce calcium flux, relative potency (P33 family) (Mas receptor)	also measured
AVLFPAAHRP (listed as Homo sapiens) [P33—5]	failed to induce calcium flux			
Ac2-26: a peptide derived from the N-terminus of AnnexinI, known FPRL1 agonist, positive control (AMVSEFLKQAWFIENEEQEYVQTVK) [reference compound]				inhibition of leukocyte accumulation triggered by zymosan A ([1]; Example 6, 200 μg/mouse i.v.): inhibited significantly; inhibition of neutrophil (GR-1+) accumulation triggered by zymosan A ([1]; Example 6, 200 μg/mouse i.v., FACS): 52%
Angiotensin 1-7 [Ang-(1-7), reference compound]				Ca response (Mas receptor; Mas dose response experiment, data not shown): did not induce Ca response
FAFLGYSIYLNRKRRGDPAF (listed as Homo sapiens) [P61—11S]				ability to induce calcium flux, relative potency (P61 family) (Mas receptor): as potent as P61_S
FTSWFM-amide (FTSWFM-NH2; listed as Homo sapiens) [P58—4]		elicited calcium flux		inhibition of leukocyte accumulation triggered by zymosan A ([1]; Example 7, 20 nmole/mouse i.v.): 35%; inhibition of leukocyte accumulation triggered by zymosan A ([1]; Example 7, 80 nmole/mouse i.v.): 47%; inhibition of zymosan-induced neutrophil (GR-1+) accumulation ([1]; Example 7, 80 nmole/mouse i.v., FACS): 49%
HRWSRAVLFPAAHRP (listed as Homo sapiens) [P33—9]	failed to induce calcium flux		induced calcium flux, albeit at a somewhat lower degree compared to P33_V	
IYLNRKRRGDPAFKRRLRD (listed as Homo sapiens) [P61—4]				ability to induce calcium flux, relative potency (P61 family) (Mas receptor): somewhat weaker
LQKFTSWFM-amide (LQKFTSWFM-NH2; listed as Homo sapiens) [P58—5]		elicited calcium flux		inhibition of leukocyte accumulation triggered by zymosan A ([1]; Example 7, 20 nmole/mouse i.v.): did not inhibit leukocyte migration; inhibition of zymosan-induced neutrophil (GR-1+) accumulation ([1]; Example 7, 20 nmole/mouse i.v., FACS): weak effect; inhibition of leukocyte accumulation triggered by zymosan A ([1]; Example 7, 80 nmole/mouse i.v.): 29%
RWSRAVLFPAAHRP (listed as Homo sapiens) [P33—8]	failed to induce calcium flux		induced calcium flux, albeit at a somewhat lower degree compared to P33_V	
SMCHRWSRAVLFPAAHRP [P33_dimer] (also: disulfide dimer via cysteine; listed as Homo sapiens) [Peptide P33_dimer]			superior to the monomeric peptides	
SMCHRWSRAVLFPAAHRP [P33_mono] (listed as Homo sapiens) [Peptide P33_mono]	similarly potent		equally potent	
TIPMFVPESTS (listed as Homo sapiens) [P58—6]		did not induce calcium flux		
TIPMFVPESTSKLQ (listed as Homo sapiens) [P58—7]		did not induce calcium flux		
TIPMFVPESTSTLQ (listed as Homo sapiens) [P58—12]		did not induce calcium flux		
TIPMFVPESTSTLQKFTSWFM-amide (TIPMFVPESTSTLQKFTSWFM-NH2; listed as Homo sapiens) [P58—10]		elicited calcium flux		
WSRAVLFPAAHRP (listed as Homo sapiens) [P33—10]	failed to induce calcium flux		induced calcium flux, albeit at a somewhat lower degree compared to P33_V	

Source: US8828940B2, “Method of treating an ischemia-reperfusion injury-related disorder by administering GPCR ligands” (priority 2006, dated 2014)
